Assay results taken from patent US6645501B2, “Anti-pathogen system and methods of use thereof” (Washington University, priority 1997, dated 2003).

Experiments:
Format in all cases: cell-based
[1] = tested on: Jurkat T-cells infected by HIV (strain NLHX); test: Killing of HIV-infected Jurkat T-cells, trypan blue exclusion and microscopy; conditions: about 18 hours post-transduction
Procedure: About 5×10^6 Jurkat T-cells were infected by HIV (strain NLHX; about 1×10^5 to 1×10^6 infectious virus per ml). The cells were propagated in RPMI media. Approximately 4 to 7 days after the infection, the media was removed from the plates and about 35 to 45 nanomoler of the TAT-CPP32 fusion protein was added to the cells. The cells were incubated with the fusion proteins for about 30 minutes to allow transduction into the cells. […] Subsequently, media was added back to the plates and after about 18 hours post-transduction, the cells were examined for cell killing using conventional trypan blue exclusion and microscopy.
Briefly, cells were infected and transduced as described in Example 6 above. Following the transduction, about 1 μg/ml Ritonavir was added to the cell media and allowed to incubate with the cells for about 18 hours. The cells were then assayed for cell killing by conventional trypan blue exclusion and microscopy. […]

[2] = tested on: Jurkat T cells; test: Co-transduction of uninfected Jurkat T cells with TAT-CPP32 and TAT-Protease, survival by trypan-blue exclusionary dye microscopy; conditions: 50-100 nM, uninfected Jurkat T cells, 18 hr post-addition
Procedure: To test for activation of the TAT-CPP32 by TAT-Protease, 2×10^6 Jurkat T cells were placed in 2 ml of culture (RPMI media). To these cells, various combinations of control and experimental transducible proteins were added in 50-100 nM ranges, as follows:
The cells were assayed for survival at 18 hr post-addition by trypan-blue exclusionary dye microscopy. […] Thus, activation of TAT-CPP32 requires the presence of HIV protease.

[3] = tested on: HIV-infected (NLHX strain) and uninfected Jurkat T-cells; test: FACS analysis of transduction and retention of fusion proteins in HIV-infected and uninfected Jurkat T-cells; conditions: about 35 to 45 nanomoler, about 30 minutes, HIV (NLHX) infected Jurkat culture
Procedure: To see if p16 fusion proteins could remain in the cell cytosol of the HIV infected cells, the TAT-HIV1,2 p16 fusion proteins produced in Example 3 were purified and labeled with FITC as described above. About 35 to 45 nanomoler of the labeled fusion protein was then added to HIV-infected (NLHX strain) and uninfected Jurkat T-cells in accordance with Example 6 below. The transduced Jurkat T-cells were then analyzed by FACS. All (100%) of cells in a mixed population of HIV infected/uninfected cells were transduced with the p16 protein at 1, 2, 4, 8 and 16 hours post-addition of the FITC conjugated fusion protein. However, when the cells were washed in fresh media and the PTD has driven out of the cells due to the concentration gradient (now high inside and 0 outside), the infected cells retained the cleaved substrate (the p16 portion) but uninfected controls lost all of the transduced protein (it transduced out) as determined by the continued presence of FITC-labeled p16 as analyzed by FACS.
About 5×10^6 Jurkat T-cells were infected by HIV (strain NLHX; about 1×10^5 to 1×10^6 infectious virus per ml). The cells were propagated in RPMI media. Approximately 4 to 7 days after the infection, the media was removed from the plates and about 35 to 45 nanomoler of the TAT-CPP32 fusion protein was added to the cells. […]

[4] = tested on: Jurkat T-cells infected by HIV; test: Cleavage of transduced p16 fusion proteins in HIV-infected Jurkat T-cells, Western/immunoblot with anti-p16 antibody; conditions: after 4, 8 and 12 hours
Procedure: Purified p16 fusion proteins were individually transduced into Jurkat T-cells infected by HIV. Methods for infecting the Jurkat T-cells with HIV and transducing fusion proteins are described in examples, which follow. After 4, 8 and 12 hours, the cells are analyzed for cleavage of the fusion protein by Western/immunoblot analysis using a commercially available anti-P16 antibody (Santa Cruz). As a control, the p16 cDNA was fused to the pTAT vector described in Example 1 to produce the vector shown in FIG. 3D (no HIV protease cleavage site). That vector encoded a p16 fusion protein fused to TAT that was not cleaved in the infected cells.

[5] = tested on: Jurkat T cells; test: FACS and confocal analysis of FITC-labeled TAT fusion proteins added to Jurkat T cells; conditions: FITC-labeled protein added to media of Jurkat T cells
[6] = target: T1, HIV Protease (Human immunodeficiency virus type 1 group M subtype B, UniProt P04585); test: In vivo substrate cleavage by co-transduced TAT-HIV Pr in Jurkat T cells, immunoblot; conditions: 100 nM substrate, 50 nM TAT-HIV Pr, Jurkat T cells, immunoblot
T1 construct: PCR cloning the HIV Protease gene from HXB2R HIV strain; 6xHis (from the pTAT vector) (N); made in house; the purified protein was added to Jurkat T cells
Procedure: To assay for in vivo cleavage, p 16(−) Jurkat T cells were transduced with 100 nM TAT-Ap16 or control TAT-p16 protein (no HIV cleavage site) alone or in combination with 50 nM TATHIV Pr fusion protein for 5 hr and analyzed by anti-p16 immunoblot for in vivo cleavage at the HIV A proteolytic cleavage site (FIG. 10A). […] Size analysis of the cleaved TAT-A-p 16 protein was consistent with retention of the residual HIV half site present on the N′ terminus of p 16 (FIG. 10A, see lane 4 vs. 5).
Further, the TAT-Casp3MUT protein was transduced in combination with TAT-HIV Pr protein into cells (FIG. 10B).
The in vivo processing in co-transduced cells shown in FIGS. 10A and 10B is explained in more detail as follows. FIG. 10A. Cultures of p16(−) Jurkat T cells were transduced with TAT-p 16 or TAT-A-p 16 substrate proteins in combination with TATHIV Pr proteins for 5 hr and subjected to anti-p 16 immunoblot analysis. […] WCE, HepG2 whole cell lysate containing wild type endogenous p16; A-p16, cleaved TAT-A-16 product retaining the HIV half site on p16. FIG. 10B. Cultures of Jurkat T cells were transduced with TATCasp3MUT protein (TAT-“D” site-p 17 domain-“A” site-p12 domain) alone or in combination with TAT-HIV Pr (Pr) protein as indicated and immunoblotted with anti-Caspase-3 antibodies specific for the p17 domain. TAT-D-p17-A, cleaved product of TAT-Casp3 containing the N′ terminal HIV A half site.
1. […] See Lissy, N. A., et al. (supra). […] See Ezhevsky, S. A., et al. (supra). […] See Xiang, J., et al., (supra). […] See Xiang, J., et al., (supra). […] See Ezhevsky, S. A., et al. (supra).

Molecule | killing of HIV-infected cells ([1]; about 35 to 45 nanomoler) | killing of uninfected cells in the population [1] | cytotoxicity when added alone [2] | loss of viable cells when added plus TAT-Protease [2] | cells transduced by the fusion protein [3] | cleavage of the fusion protein in HIV-infected cells [4] | cells transduced [5] | cleavage at the HIV cleavage site when co-transduced with TAT-HIV Pr [6]
TAT-CPP32: HIS-TAT-PTD-HIV2-large subunit of CPP32-HIV1-small subunit of CPP32 fusion protein (protein, left off: small tags and cut ends, HIS-TAT-PTD-HIV2-large subunit of CPP32-HIV1-small subunit of CPP32 fusion protein) GRKKRRQRRRGYPYDVPDYACTERQANFLGKIWPGISLDNSYKMDYPEMGLCIIINNKNFHKSTGMTSRSGTDVDAANLRETFRNLKYEVRNKNDLTREEIVELMRDVSKEDHSKRSSFVCVLLSHGEEGIIFGTNGPVDLKKITNFFRGDRCRSLTGKPKLFIIQACRGTELDCGIETSQVSQNYPIVQNLQGVDDDMACHKIPVEADFLYAYSTAPGYYSWRNSKDGSWFIQSLCAMLKQYADKLEFMHILTRVNRKVATEFESFSFDATFHAKKQIPCIVSMLTKELYFYH | about all of the infected cells were killed | does not kill | minimal cytotoxicity | substantial loss of viable cells | about 100% |  |  | 
TAT-p16: control TAT-p16 fusion protein with no HIV cleavage site (protein, left off: small tags and cut ends, control TAT-p16 fusion protein with no HIV cleavage site) GRKKRRQRRRGMEPAAGSSMEPSADWLATAAARGRVEEVRALLEAGALPNAPNSYGRRPIQVMMMGSARVAELLLLHGAEPNCADPATLTRPVHDAAREGFLDTLVVLHRAGARLDVRDAWGRLPVDLAEELGHRDVARYLRAAAGGTRGSNHARIDAAEGPSDIPD |  |  |  |  |  | not cleaved | 100% | not cleaved
